No end group written: not given here. mPEG 20 kDa = linear 20 kDa mPEG attached to the Gln side chain; mPEG 5 kDa = linear 5 kDa mPEG attached to the Gln side chain
Tests used:
rat β-cell line RIN-m5F = experiment: In vitro insulin secretion, static incubation of RIN-m5F cells; type: cell-based; conditions: for EC50: read-out: In vitro insulin secretion in rat β-cell line RIN-m5F, EC50, 2 mM glucose, 30 min incubation, rat insulin ELISA, mean ± SEM of three experiments
[1] = Pharmacokinetics after subcutaneous injection in rats; type: in vivo, Sprague-Dawley rats; conditions: 1 mg/kg s.c.; for Cmax / tmax: plasma ELISA; for tmax: non-compartmental

| EC50 (rat β-cell line RIN-m5F) [nM] | Substance | tmax ([1]; four animals) [h] | further results |
| --- | --- | --- | --- |
| 106.3 ± 0.5 | GLP-1-(7-36)-(T11Q–Q23N)-amide-Q^11-PEG 5 kDa (HAEGQ(mPEG 5 kDa)FTSDVSSYLEGNAAKEFIAWLVKGR-NH2; UniProt P01275 98-127, looked up, variant T11Q Q23N) | – | – |
| 34.4 ± 0.8 | GLP-1-(7-36)-amide-Q^23-PEG 20 kDa: GLP-1(7-36)-amide monopegylated at glutamine 23 with linear 20 kDa mPEG-NH2 | 9 | AUC (AUC96 h) ([1]; 0→96 h, linear trapezoidal rule, four animals): 16,799.8 ng/ml×h; plasma concentration after 96 h ([1]; 96 h): around 5 ng/ml; Cmax ([1]; four animals, 1 mg/kg): 640 ng/mL |
| 35 ± 3 | GLP-1-(7-36)-(Q23N–A30Q)-amide-Q^30-PEG 20 kDa (HAEGTFTSDVSSYLEGNAAKEFIQ(mPEG 20 kDa)WLVKGR-NH2; UniProt P01275 98-127, looked up, variant Q23N A30Q) | – | In vitro insulin secretion, Relative potency (rat β-cell line RIN-m5F; 1/(EC50 analog/EC50 GLP-1(7-36)-amide)): 0.017 |
| – | GLP-1-(7-36)-amide-Q^23-PEG 5 kDa: GLP-1(7-36)-amide monopegylated at glutamine 23 with linear 5 kDa mPEG-NH2 | 3 | t1/2 ([1]; elimination phase of log transformed curve, four animals): 1.7 h; Cmax ([1]; four animals): 160.4 ng/mL |
| 1870 ± 1 | GLP-1-(7-36)-amide-Q^23-PEG 50 kDa: GLP-1(7-36)-amide monopegylated at glutamine 23 with branched 50 kDa mPEG-NH2 | – | – |

From publication PMC4167179 (Results in Pharma Sciences, 2012)
